T1: IL10Rα/IL2Rγ receptor (human) (UniProt Q13651)
T1 sequence (looked up) 1: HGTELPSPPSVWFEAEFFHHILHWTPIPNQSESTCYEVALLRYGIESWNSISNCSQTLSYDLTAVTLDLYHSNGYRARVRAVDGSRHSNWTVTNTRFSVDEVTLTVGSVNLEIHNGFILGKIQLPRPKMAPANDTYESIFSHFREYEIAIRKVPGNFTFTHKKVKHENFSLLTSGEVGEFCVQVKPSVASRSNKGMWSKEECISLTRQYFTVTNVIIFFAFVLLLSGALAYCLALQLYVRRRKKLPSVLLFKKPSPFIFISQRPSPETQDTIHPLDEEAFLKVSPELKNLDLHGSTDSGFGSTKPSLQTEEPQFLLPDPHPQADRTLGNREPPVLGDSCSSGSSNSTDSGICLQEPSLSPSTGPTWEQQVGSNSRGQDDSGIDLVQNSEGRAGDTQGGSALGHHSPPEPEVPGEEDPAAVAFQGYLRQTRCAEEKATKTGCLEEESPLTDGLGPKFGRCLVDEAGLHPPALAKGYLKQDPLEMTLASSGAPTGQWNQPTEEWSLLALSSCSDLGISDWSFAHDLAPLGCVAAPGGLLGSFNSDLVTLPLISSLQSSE
T1 sequence (looked up) 2: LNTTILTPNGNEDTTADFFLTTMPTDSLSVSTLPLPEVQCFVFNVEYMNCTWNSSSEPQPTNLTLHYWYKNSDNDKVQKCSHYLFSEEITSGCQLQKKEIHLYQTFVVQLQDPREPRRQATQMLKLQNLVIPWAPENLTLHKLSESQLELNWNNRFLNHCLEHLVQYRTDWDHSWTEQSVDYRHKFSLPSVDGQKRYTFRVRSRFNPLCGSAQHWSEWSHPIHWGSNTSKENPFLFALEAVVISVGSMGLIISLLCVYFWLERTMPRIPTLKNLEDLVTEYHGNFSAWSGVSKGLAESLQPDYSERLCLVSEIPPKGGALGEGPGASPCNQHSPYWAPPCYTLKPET


molecular target: T1, IL10Rα/IL2Rγ receptor (human); experiment: cell-based or functional assay

Granzyme A secretion, CD8 T cells, at 0 µM [pg/mL]	Granzyme A secretion, CD8 T cells, at 0.0001 µM [pg/mL]	Granzyme A secretion, CD8 T cells, at 0.001 µM [pg/mL]	Granzyme A secretion, CD8 T cells, at 0.01 µM [pg/mL]	Granzyme A secretion, CD8 T cells, at 0.1 µM [pg/mL]	Granzyme A secretion, CD8 T cells, at 1 µM [pg/mL]	Granzyme A secretion, CD8 T cells, at 10 µM [pg/mL]	Granzyme A secretion, CD8 T cells, at 100 µM [pg/mL]	Granzyme B secretion, CD8 T cells, at 0 µM [pg/mL]	Granzyme B secretion, CD8 T cells, at 0.0001 µM [pg/mL]	Binder
25200	19700	22300	22200	22900	24400	26000	27500	77700	49300	hIL10Ra_VHH14 - hIL2Rg_VHH19, No linker, tag his (bispecific antibody, not shown: small tags and cut ends) QVQLQESGGGSVQAGGSLRLSCGASGYTYSSYCMGWFRQVPGKEREGVAVIDSDGSTSYADSVKGRFTISKDNGKNTLYLQMNSLKPEDTAMYYCAADLGHYRPPCGVLYLGMDYWGKGTQVTVSSQVQLQESGGGSVQAGGSLRLSCTASGFTFDDREMNWYRQAPGNECELVSTISSDGSTYYADSVKGRFTISQDNAKNTVYLQMDSVKPEDTAVYYCAADFMIAIQAPGAGCWGQGTQVTVSS
25200	19900	22700	25900	26100	27900	28600	28400	77700	49200	hIL10Ra_VHH14 - hIL2Rg_VHH19, linker GS, tag his (bispecific antibody, not shown: small tags and cut ends) QVQLQESGGGSVQAGGSLRLSCGASGYTYSSYCMGWFRQVPGKEREGVAVIDSDGSTSYADSVKGRFTISKDNGKNTLYLQMNSLKPEDTAMYYCAADLGHYRPPCGVLYLGMDYWGKGTQVTVSSGSQVQLQESGGGSVQAGGSLRLSCTASGFTFDDREMNWYRQAPGNECELVSTISSDGSTYYADSVKGRFTISQDNAKNTVYLQMDSVKPEDTAVYYCAADFMIAIQAPGAGCWGQGTQVTVSS

same assay, conditions: not given

Granzyme B secretion, CD8 T cells, at 0.001 µM [pg/mL]	Granzyme B secretion, CD8 T cells, at 0.01 µM [pg/mL]	Granzyme B secretion, CD8 T cells, at 0.1 µM [pg/mL]	Granzyme B secretion, CD8 T cells, at 1 µM [pg/mL]	Granzyme B secretion, CD8 T cells, at 10 µM [pg/mL]	Granzyme B secretion, CD8 T cells, at 100 µM [pg/mL]	IFNγ secretion, CD8 T cells, at 0 µM [pg/mL]	IFNγ secretion, CD8 T cells, at 0.0001 µM [pg/mL]	IFNγ secretion, CD8 T cells, at 0.001 µM [pg/mL]	IFNγ secretion, CD8 T cells, at 0.01 µM [pg/mL]	Binder
47300	44200	54800	56300	67100	74300	122000	102000	104000	111000	hIL10Ra_VHH14 - hIL2Rg_VHH19, No linker, tag his (bispecific antibody, not shown: small tags and cut ends) QVQLQESGGGSVQAGGSLRLSCGASGYTYSSYCMGWFRQVPGKEREGVAVIDSDGSTSYADSVKGRFTISKDNGKNTLYLQMNSLKPEDTAMYYCAADLGHYRPPCGVLYLGMDYWGKGTQVTVSSQVQLQESGGGSVQAGGSLRLSCTASGFTFDDREMNWYRQAPGNECELVSTISSDGSTYYADSVKGRFTISQDNAKNTVYLQMDSVKPEDTAVYYCAADFMIAIQAPGAGCWGQGTQVTVSS
49400	55500	58000	80200	87000	99900	122000	91700	105000	122000	hIL10Ra_VHH14 - hIL2Rg_VHH19, linker GS, tag his (bispecific antibody, not shown: small tags and cut ends) QVQLQESGGGSVQAGGSLRLSCGASGYTYSSYCMGWFRQVPGKEREGVAVIDSDGSTSYADSVKGRFTISKDNGKNTLYLQMNSLKPEDTAMYYCAADLGHYRPPCGVLYLGMDYWGKGTQVTVSSGSQVQLQESGGGSVQAGGSLRLSCTASGFTFDDREMNWYRQAPGNECELVSTISSDGSTYYADSVKGRFTISQDNAKNTVYLQMDSVKPEDTAVYYCAADFMIAIQAPGAGCWGQGTQVTVSS

same assay, conditions: not given

IFNγ secretion, CD8 T cells, at 0.1 µM [pg/mL]	IFNγ secretion, CD8 T cells, at 1 µM [pg/mL]	IFNγ secretion, CD8 T cells, at 10 µM [pg/mL]	IFNγ secretion, CD8 T cells, at 100 µM [pg/mL]	IL-1β secretion, LPS treated monocytes, at 0 µM [pg/mL]	IL-1β secretion, LPS treated monocytes, at 0 µM (LPS only) [pg/mL]	IL-1β secretion, LPS treated monocytes, at 0.0001 µM [pg/mL]	IL-1β secretion, LPS treated monocytes, at 0.001 µM [pg/mL]	IL-1β secretion, LPS treated monocytes, at 0.01 µM [pg/mL]	IL-1β secretion, LPS treated monocytes, at 0.1 µM [pg/mL]	Binder
111000	123000	131000	134000	6240	6880	5540	5550	5370	5290	hIL10Ra_VHH14 - hIL2Rg_VHH19, No linker, tag his (bispecific antibody, not shown: small tags and cut ends) QVQLQESGGGSVQAGGSLRLSCGASGYTYSSYCMGWFRQVPGKEREGVAVIDSDGSTSYADSVKGRFTISKDNGKNTLYLQMNSLKPEDTAMYYCAADLGHYRPPCGVLYLGMDYWGKGTQVTVSSQVQLQESGGGSVQAGGSLRLSCTASGFTFDDREMNWYRQAPGNECELVSTISSDGSTYYADSVKGRFTISQDNAKNTVYLQMDSVKPEDTAVYYCAADFMIAIQAPGAGCWGQGTQVTVSS
129000	134000	143000	143000	6240	6880	5960	6270	5060	6590	hIL10Ra_VHH14 - hIL2Rg_VHH19, linker GS, tag his (bispecific antibody, not shown: small tags and cut ends) QVQLQESGGGSVQAGGSLRLSCGASGYTYSSYCMGWFRQVPGKEREGVAVIDSDGSTSYADSVKGRFTISKDNGKNTLYLQMNSLKPEDTAMYYCAADLGHYRPPCGVLYLGMDYWGKGTQVTVSSGSQVQLQESGGGSVQAGGSLRLSCTASGFTFDDREMNWYRQAPGNECELVSTISSDGSTYYADSVKGRFTISQDNAKNTVYLQMDSVKPEDTAVYYCAADFMIAIQAPGAGCWGQGTQVTVSS

same assay, conditions: not given

IL-1β secretion, LPS treated monocytes, at 1 µM [pg/mL]	IL-1β secretion, LPS treated monocytes, at 10 µM [pg/mL]	IL-1β secretion, LPS treated monocytes, at 100 µM [pg/mL]	IL-9 secretion, CD8 T cells, at 0 µM [pg/mL]	IL-9 secretion, CD8 T cells, at 0.0001 µM [pg/mL]	IL-9 secretion, CD8 T cells, at 0.001 µM [pg/mL]	IL-9 secretion, CD8 T cells, at 0.01 µM [pg/mL]	IL-9 secretion, CD8 T cells, at 0.1 µM [pg/mL]	IL-9 secretion, CD8 T cells, at 1 µM [pg/mL]	IL-9 secretion, CD8 T cells, at 10 µM [pg/mL]	Binder
5800	5790	7100	1350	933	1120	1140	1070	1220	1440	hIL10Ra_VHH14 - hIL2Rg_VHH19, No linker, tag his (bispecific antibody, not shown: small tags and cut ends) QVQLQESGGGSVQAGGSLRLSCGASGYTYSSYCMGWFRQVPGKEREGVAVIDSDGSTSYADSVKGRFTISKDNGKNTLYLQMNSLKPEDTAMYYCAADLGHYRPPCGVLYLGMDYWGKGTQVTVSSQVQLQESGGGSVQAGGSLRLSCTASGFTFDDREMNWYRQAPGNECELVSTISSDGSTYYADSVKGRFTISQDNAKNTVYLQMDSVKPEDTAVYYCAADFMIAIQAPGAGCWGQGTQVTVSS
5760	6710	8140	1350	918	998	1070	1230	1610	1730	hIL10Ra_VHH14 - hIL2Rg_VHH19, linker GS, tag his (bispecific antibody, not shown: small tags and cut ends) QVQLQESGGGSVQAGGSLRLSCGASGYTYSSYCMGWFRQVPGKEREGVAVIDSDGSTSYADSVKGRFTISKDNGKNTLYLQMNSLKPEDTAMYYCAADLGHYRPPCGVLYLGMDYWGKGTQVTVSSGSQVQLQESGGGSVQAGGSLRLSCTASGFTFDDREMNWYRQAPGNECELVSTISSDGSTYYADSVKGRFTISQDNAKNTVYLQMDSVKPEDTAVYYCAADFMIAIQAPGAGCWGQGTQVTVSS

same assay, conditions: not given

IL-9 secretion, CD8 T cells, at 100 µM [pg/mL]	Binder
1670	hIL10Ra_VHH14 - hIL2Rg_VHH19, No linker, tag his (bispecific antibody, not shown: small tags and cut ends) QVQLQESGGGSVQAGGSLRLSCGASGYTYSSYCMGWFRQVPGKEREGVAVIDSDGSTSYADSVKGRFTISKDNGKNTLYLQMNSLKPEDTAMYYCAADLGHYRPPCGVLYLGMDYWGKGTQVTVSSQVQLQESGGGSVQAGGSLRLSCTASGFTFDDREMNWYRQAPGNECELVSTISSDGSTYYADSVKGRFTISQDNAKNTVYLQMDSVKPEDTAVYYCAADFMIAIQAPGAGCWGQGTQVTVSS
1880	hIL10Ra_VHH14 - hIL2Rg_VHH19, linker GS, tag his (bispecific antibody, not shown: small tags and cut ends) QVQLQESGGGSVQAGGSLRLSCGASGYTYSSYCMGWFRQVPGKEREGVAVIDSDGSTSYADSVKGRFTISKDNGKNTLYLQMNSLKPEDTAMYYCAADLGHYRPPCGVLYLGMDYWGKGTQVTVSSGSQVQLQESGGGSVQAGGSLRLSCTASGFTFDDREMNWYRQAPGNECELVSTISSDGSTYYADSVKGRFTISQDNAKNTVYLQMDSVKPEDTAVYYCAADFMIAIQAPGAGCWGQGTQVTVSS
